To fix the notation:
B2: GFP-FIP200 CTR aa 1429-1594 (domain or fragment, human, UniProt Q8TDY2 1429-1594, looked up)
chain: ADEGRVDSAMETSMMSVQENIHMLSEEKQRIMLLERTLQLKEEENKRLNQRLMSQSMSSVSSRHSEKIAIRDFQVGDLVLIILDERHDNYVLFTVSPTLYFLHSESLPALDLKPGEGASGASRRPWVLGKVMEKEYCQAKKAQNRFKVPLGTKFYRVKAVSWNKKV
notes: FIP200 (RB1CC1), human, C-terminal region, residues 1429-1594; source: E. coli Rosetta (DE3) pLysS, purified (HisTrap, TEV, SEC); not shown: His6, N-terminal, cleaved; GFP, N-terminal, kept

In one data set the target is T1, mCherry-p62 LIRmut (human, UniProt Q13501 1-440, residues 335-338 are mutated to Ala).
T1 construct: p62/SQSTM1, human, full length, LIR motif mutated; also called the LIR mutant; source: E. coli, purified as previously described (Wurzer et al., 2015)
Description: microscopy-based protein-protein interaction assay (bait on beads); GST-tagged bait on glutathione Sepharose 4B beads, 2-5 μM fluorescently labeled prey not washed away (equilibrium), 25 mM HEPES pH 7.5, 150 mM NaCl, 1 mM DTT, 30 min to 1 h at room temperature or 4°C; confocal or spinning disk microscopy. As to conditions: both partners purified.

Data set [1] deals with T2, mCherry-p62 wt (human, UniProt Q13501 1-440).
T2 construct: p62/SQSTM1, human, full length; also called full-length mCherry-p62 WT; source: E. coli, purified as previously described (Wurzer et al., 2015)
Described as above. As to conditions: both partners purified.

The target of data set [2] is T2, mCherry-p62 wt. Description: microscopy-based protein-protein interaction assay (bait on beads); GSH beads coated with GST-2x ubiquitin, excess washed off, incubated with mCherry-p62 (2 μM) and GFP-FIP200 CTR (5 μM) for 1 h, imaged by microscopy. Particulars: both partners purified.
Data set [3] deals with the molecule itself. The data set can be described thus: crystal structure; FIP200 Claw aa 1494-1594, SeMet crystal, 1.56 Å, space group C2221, one monomer in the asymmetric unit; 0.1 M HEPES pH 7.4, 2 M ammonium sulfate.
The target in data set [4] is B2. The data set can be described thus: microscopy-based protein-protein interaction assay (bait on beads); GST-tagged bait on glutathione Sepharose 4B beads, 2-5 μM fluorescently labeled prey not washed away (equilibrium), 25 mM HEPES pH 7.5, 150 mM NaCl, 1 mM DTT, 30 min to 1 h at room temperature or 4°C; confocal or spinning disk microscopy. As to conditions: both partners purified.

Data set [5] deals with the molecule itself. Description: SEC with right-angle light scattering; 100 μl of 3 mg/ml FIP200 CTR on Superdex S75 10/300 with RALS-refractive index detector; 25 mM HEPES pH 7.5, 150 mM NaCl.
Data set [6] has as its target T3, GFP-FIP200 CTR aa 1458-1594 (human, UniProt Q8TDY2 1458-1594).
T3 construct: FIP200 (RB1CC1), human, C-terminal region, residues 1458-1594; also called GFP-FIP200 CTR WT; WT GFP-FIP200 CTR; source: E. coli Rosetta (DE3) pLysS, purified (HisTrap, TEV, SEC); not shown: His6, N-terminal, cleaved; GFP, N-terminal, kept
Description: microscopy-based protein-protein interaction assay (bait on beads); GST-tagged bait on glutathione Sepharose 4B beads, 2-5 μM fluorescently labeled prey not washed away (equilibrium), 25 mM HEPES pH 7.5, 150 mM NaCl, 1 mM DTT, 30 min to 1 h at room temperature or 4°C; confocal or spinning disk microscopy. Particulars: both partners purified.

For data set [7], the target named is T4, FITC-labeled full-length FIP200 (FITC-FIP200-MBP) (human, UniProt Q8TDY2 1-1594, FITC-LPETGG peptide joined to the N-terminal glycine by Δ59SortaseA (FITC on the N-terminus)).
T4 construct: FIP200 (RB1CC1), human, full length; pCAG vector; also called Gly-FIP200-MBP; source: HEK293-GnT1 suspension cells, purified (Glutathione Sepharose, TEV, amylose resin, Superose 6); not shown: GST, N-terminal, cleaved; MBP, C-terminal, kept
The description is as above. As to conditions: both partners purified.

A further data set has as its target T5, GFP-FIP200 CTR N1517F (human, UniProt Q8TDY2 1458-1594, N1517F).
T5 construct: FIP200 (RB1CC1), human, C-terminal region, residues 1458-1594; source: E. coli Rosetta (DE3) pLysS, purified (HisTrap, TEV, SEC); not shown: His6, N-terminal, cleaved; GFP, N-terminal, kept
The data set is described as above. As to conditions: both partners purified.

A word on the stoichiometry N: it is a count of units in the complex or per binding partner.

B1: GST-FIP200 CTR aa 1429-1594 (domain or fragment, human, UniProt Q8TDY2 1429-1594, looked up)
chain: ADEGRVDSAMETSMMSVQENIHMLSEEKQRIMLLERTLQLKEEENKRLNQRLMSQSMSSVSSRHSEKIAIRDFQVGDLVLIILDERHDNYVLFTVSPTLYFLHSESLPALDLKPGEGASGASRRPWVLGKVMEKEYCQAKKAQNRFKVPLGTKFYRVKAVSWNKKV
notes: FIP200 (RB1CC1), human, C-terminal region, residues 1429-1594; cloned in pGEX 4T1; also called FIP200 C-terminal region (CTR); source: E. coli Rosetta (DE3) pLysS, purified (GSTrap, SEC)
Take B1: the binding result in the data set with mCherry-p62 LIRmut and with mCherry-p62 wt [1] was “binds” in each case.

Regarding B2, the binding result in the data set with mCherry-p62 wt [2] is listed as “binds”.

B3: FIP200 Claw (aa 1494-1594) (domain or fragment, human, UniProt Q8TDY2 1494-1594, looked up)
chain: EKIAIRDFQVGDLVLIILDERHDNYVLFTVSPTLYFLHSESLPALDLKPGEGASGASRRPWVLGKVMEKEYCQAKKAQNRFKVPLGTKFYRVKAVSWNKKV
modifications: selenomethionine-substituted (crystal)
notes: FIP200 (RB1CC1), human, Claw domain, residues 1494-1594; one monomer in the asymmetric unit, dimer by a crystallographic 2-fold; also called isolated Claw domain; FIP200 Claw domain; source: E. coli BL21(DE3), purified (Ni-NTA, TEV, Superdex 75)
For B3, the binding result in data set [3] was “binds”.

B4: GST-p62 aa334-356 (domain or fragment, human, UniProt Q13501 334-356, looked up)
chain: GDDDWTHLSSKEVDPSTGELQSL
notes: p62/SQSTM1, human, residues 334-356; also called pGEX-p62 aa334-356; source: E. coli Rosetta (DE3) pLysS, purified (GSTrap, SEC)
Take B4: in data set [4], the binding result was “binds”.

B5: FIP200 CTR (aa 1458-1594) (domain or fragment, human, UniProt Q8TDY2 1458-1594, looked up)
chain: RIMLLERTLQLKEEENKRLNQRLMSQSMSSVSSRHSEKIAIRDFQVGDLVLIILDERHDNYVLFTVSPTLYFLHSESLPALDLKPGEGASGASRRPWVLGKVMEKEYCQAKKAQNRFKVPLGTKFYRVKAVSWNKKV
notes: FIP200 (RB1CC1), human, C-terminal region, residues 1458-1594; source: E. coli Rosetta2 (DE3), purified (Ni-NTA, TEV, Superdex S75); not shown: His6, N-terminal, cleaved
Consider B5, for which the “stoichiometry N” value in data set [5] stood at 2.

B6: GST-p62 FIR 3P (domain or fragment, human, UniProt Q13501 326-380, looked up)
chain: MESDNCSGGDDDWTHLSSKEVDPSTGELQSLQMPESEGPDDLDPDQEGPTGLKEA
notes: also called 3P (S365D, S366D, S370D); triple mutant; source: E. coli Rosetta (DE3) pLysS, purified (GSTrap, SEC)
Consider B6, for which the binding result in data set [6] is on record as “binds”.

B7: GST-p62 FIR 4P (domain or fragment, human, UniProt Q13501 326-380, looked up)
chain: MESDNCSGGDDDWTHLSSKEVDPDTGELQSLQMPESEGPDDLDPDQEGPTGLKEA
notes: also called 4P (S349D, S365D, S366D, S370D); quadruple mutant; source: E. coli Rosetta (DE3) pLysS, purified (GSTrap, SEC)
As to B7, the binding result (in data set [7]; in [6]; in the data set with GFP-FIP200 CTR N1517F) was “binds” in each case.

The values above are taken from PMC6477179, “FIP200 Claw Domain Binding to p62 Promotes Autophagosome Formation at Ubiquitin Condensates” (Molecular Cell, 2019).
